# According to doi:10.1101/2025.01.13.632879:
# Legend:
# Assay in all cases: SEC
# [1] = biological target: Clostridioides difficile GerS K71R, His6-tagged (Clostridioides difficile)
# [2] = biological target: Clostridioides difficile GerS N74L, His6-tagged (Clostridioides difficile)
# [3] = biological target: Clostridioides difficile GerS T72P, His6-tagged (Clostridioides difficile)
# [4] = biological target: Clostridioides difficile GerS, His6-tagged (wild type) (Clostridioides difficile)
# [5] = biological target: GerS ortholog from Paraclostridium bifermentans, His6-tagged (Paraclostridium bifermentans)
# [6] = biological target: GerS ortholog from Paraclostridium sordellii, His6-tagged (Paraclostridium sordellii)
substance,measurement,setting,value
"Clostridioides difficile GerS K71R, His6-tagged (natural protein)",stoichiometry N,[1],2
"Clostridioides difficile GerS N74L, His6-tagged (natural protein)",stoichiometry N,[2],2
"Clostridioides difficile GerS T72P, His6-tagged (natural protein)",stoichiometry N,[3],2
"Clostridioides difficile GerS, His6-tagged (wild type) (natural protein)",stoichiometry N,[4],2
"GerS ortholog from Paraclostridium bifermentans, His6-tagged (natural protein)",stoichiometry N,[5],2
"GerS ortholog from Paraclostridium sordellii, His6-tagged (natural protein)",stoichiometry N,[6],2
